From paper PMC4546571 (Chemistry & biology, 2015)

Molecular target: the molecule itself
Experiment: seeded fibril assembly followed by ThT fluorescence

## GIHKQKEKSRLQGGVLVNEILNHMKRATQIPSYKKLIMY (peptide, UniProt P15309 248-286, looked up) [PAP248-286]
  binding result: binds
